# From the supplement of paper PMC10065799, “High-throughput profiling of sequence recognition by tyrosine kinases and SH2 domains using bacterial peptide display” (eLife, 2023)
# Legend:
# Hck = Hck (UniProt P08631); experiment: phosphorylation enrichment, bacterial display (enrichment ratio); higher = better substrate or ligand; peptides without Tyr show the background
# Fer (mouse) = experiment: as above
# c-Abl (mouse) = experiment: as above
# FGFR3 = FGFR3 (UniProt P22607); experiment: as above
# AncSZ = experiment: as above
# Jak2 = Jak2 (UniProt O60674); experiment: as above
# FGFR1 = FGFR1 (UniProt P11362); experiment: as above
# Fyn = Fyn (UniProt P06241); experiment: as above
# c-Src = experiment: as above
# EPHB2 = EPHB2 (UniProt P29323); experiment: as above
# Fes = Fes (UniProt P07332); experiment: as above
# EPHB1 = EPHB1 (UniProt P54762); experiment: as above
# MERTK = MERTK (UniProt Q12866); experiment: as above
# SHP2-C SH2 = experiment: SH2 binding enrichment of the phosphorylated peptide, bacterial display (enrichment ratio); higher = better substrate or ligand; peptides without Tyr show the background
# Grb2 SH2 = Grb2 SH2 (UniProt P62993); experiment: as above
# c-Src SH2 = experiment: as above
# 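Wherever SH2 binding enrichment of the phosphorylated peptide, bacterial display is given: peptide library displayed on the E. coli surface as eCPX fusions, selected cells deep-sequenced, score is each peptide's frequency after selection divided by its frequency in the input.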
# 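Wherever phosphorylation enrichment, bacterial display is given: 11-residue human phosphosite peptides and single-mutation variants displayed on the E. coli surface, counted by deep sequencing, each peptide's frequency after selection divided by its frequency in the unselected input library; frequency after pTyr selection over input frequency; kinase dosed for 20-30% of maximal phosphorylation in three min.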
# FGFR1, sequence (P11362 whole entry, looked up): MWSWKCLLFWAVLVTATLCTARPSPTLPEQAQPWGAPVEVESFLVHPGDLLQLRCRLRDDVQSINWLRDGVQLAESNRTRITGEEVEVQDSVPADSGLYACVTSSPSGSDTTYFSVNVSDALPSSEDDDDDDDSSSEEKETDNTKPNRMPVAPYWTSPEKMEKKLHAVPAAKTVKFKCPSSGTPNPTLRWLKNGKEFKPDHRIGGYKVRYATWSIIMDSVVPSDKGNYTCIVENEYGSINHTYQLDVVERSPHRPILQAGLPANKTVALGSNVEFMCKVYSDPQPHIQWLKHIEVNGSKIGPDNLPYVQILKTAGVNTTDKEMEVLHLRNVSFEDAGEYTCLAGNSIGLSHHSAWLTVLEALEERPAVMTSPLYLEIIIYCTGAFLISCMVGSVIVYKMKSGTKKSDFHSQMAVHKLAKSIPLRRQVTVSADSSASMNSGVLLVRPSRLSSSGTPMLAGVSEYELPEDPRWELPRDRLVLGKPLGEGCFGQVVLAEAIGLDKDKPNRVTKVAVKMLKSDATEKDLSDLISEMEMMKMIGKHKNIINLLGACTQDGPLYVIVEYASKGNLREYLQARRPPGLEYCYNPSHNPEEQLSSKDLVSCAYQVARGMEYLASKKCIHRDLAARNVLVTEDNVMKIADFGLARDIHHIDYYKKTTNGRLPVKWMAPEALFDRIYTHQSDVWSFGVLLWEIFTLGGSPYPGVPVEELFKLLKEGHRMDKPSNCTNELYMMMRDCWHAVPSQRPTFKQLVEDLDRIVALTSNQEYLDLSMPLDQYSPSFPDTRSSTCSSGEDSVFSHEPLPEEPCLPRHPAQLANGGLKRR
# FGFR3, sequence (P22607 whole entry, looked up): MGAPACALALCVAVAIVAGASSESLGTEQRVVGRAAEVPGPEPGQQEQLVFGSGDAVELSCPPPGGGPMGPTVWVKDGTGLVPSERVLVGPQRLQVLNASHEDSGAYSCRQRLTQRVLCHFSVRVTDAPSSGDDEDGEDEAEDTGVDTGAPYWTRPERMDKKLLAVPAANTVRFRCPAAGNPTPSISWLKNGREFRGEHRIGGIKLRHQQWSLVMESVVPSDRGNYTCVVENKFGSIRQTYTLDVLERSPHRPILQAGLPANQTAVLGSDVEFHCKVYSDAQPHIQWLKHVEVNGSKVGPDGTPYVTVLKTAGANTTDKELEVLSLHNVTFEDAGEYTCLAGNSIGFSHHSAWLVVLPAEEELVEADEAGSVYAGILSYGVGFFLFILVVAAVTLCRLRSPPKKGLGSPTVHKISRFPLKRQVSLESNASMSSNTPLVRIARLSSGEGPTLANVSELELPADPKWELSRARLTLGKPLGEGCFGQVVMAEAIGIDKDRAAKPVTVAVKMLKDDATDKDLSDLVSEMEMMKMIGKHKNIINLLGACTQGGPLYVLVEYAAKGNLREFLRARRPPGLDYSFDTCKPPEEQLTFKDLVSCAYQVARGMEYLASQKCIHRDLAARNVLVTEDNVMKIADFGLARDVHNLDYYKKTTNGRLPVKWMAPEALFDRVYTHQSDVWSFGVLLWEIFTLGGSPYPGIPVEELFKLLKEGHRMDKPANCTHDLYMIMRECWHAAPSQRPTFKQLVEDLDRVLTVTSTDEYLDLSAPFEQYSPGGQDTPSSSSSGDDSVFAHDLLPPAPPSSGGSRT
# EPHB1, sequence (P54762 whole entry, looked up): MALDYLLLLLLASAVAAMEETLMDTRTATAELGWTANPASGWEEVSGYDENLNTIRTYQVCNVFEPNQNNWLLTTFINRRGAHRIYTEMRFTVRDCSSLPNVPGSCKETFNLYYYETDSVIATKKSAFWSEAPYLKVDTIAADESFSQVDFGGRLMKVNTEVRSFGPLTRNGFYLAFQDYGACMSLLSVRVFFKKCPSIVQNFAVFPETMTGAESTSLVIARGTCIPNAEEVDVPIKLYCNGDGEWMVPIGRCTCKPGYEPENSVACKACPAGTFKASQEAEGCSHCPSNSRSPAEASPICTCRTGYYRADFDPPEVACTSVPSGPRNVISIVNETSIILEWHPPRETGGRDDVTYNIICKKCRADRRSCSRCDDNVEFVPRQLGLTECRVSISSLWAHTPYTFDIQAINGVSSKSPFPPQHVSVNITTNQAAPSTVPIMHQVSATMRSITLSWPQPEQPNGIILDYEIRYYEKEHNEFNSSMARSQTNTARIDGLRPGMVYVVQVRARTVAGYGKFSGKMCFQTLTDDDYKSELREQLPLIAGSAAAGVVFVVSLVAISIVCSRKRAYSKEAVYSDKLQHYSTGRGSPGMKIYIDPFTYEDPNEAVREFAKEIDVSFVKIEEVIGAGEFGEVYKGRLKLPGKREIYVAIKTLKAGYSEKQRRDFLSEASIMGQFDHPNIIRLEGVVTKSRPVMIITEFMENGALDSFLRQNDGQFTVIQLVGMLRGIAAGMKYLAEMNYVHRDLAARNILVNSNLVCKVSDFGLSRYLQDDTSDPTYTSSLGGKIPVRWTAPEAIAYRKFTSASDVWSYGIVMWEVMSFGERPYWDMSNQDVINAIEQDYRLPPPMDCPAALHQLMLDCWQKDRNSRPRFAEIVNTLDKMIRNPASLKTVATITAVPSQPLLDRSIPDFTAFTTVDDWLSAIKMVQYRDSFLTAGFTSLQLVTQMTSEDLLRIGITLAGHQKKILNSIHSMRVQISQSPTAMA
# MERTK, sequence (Q12866 whole entry, looked up): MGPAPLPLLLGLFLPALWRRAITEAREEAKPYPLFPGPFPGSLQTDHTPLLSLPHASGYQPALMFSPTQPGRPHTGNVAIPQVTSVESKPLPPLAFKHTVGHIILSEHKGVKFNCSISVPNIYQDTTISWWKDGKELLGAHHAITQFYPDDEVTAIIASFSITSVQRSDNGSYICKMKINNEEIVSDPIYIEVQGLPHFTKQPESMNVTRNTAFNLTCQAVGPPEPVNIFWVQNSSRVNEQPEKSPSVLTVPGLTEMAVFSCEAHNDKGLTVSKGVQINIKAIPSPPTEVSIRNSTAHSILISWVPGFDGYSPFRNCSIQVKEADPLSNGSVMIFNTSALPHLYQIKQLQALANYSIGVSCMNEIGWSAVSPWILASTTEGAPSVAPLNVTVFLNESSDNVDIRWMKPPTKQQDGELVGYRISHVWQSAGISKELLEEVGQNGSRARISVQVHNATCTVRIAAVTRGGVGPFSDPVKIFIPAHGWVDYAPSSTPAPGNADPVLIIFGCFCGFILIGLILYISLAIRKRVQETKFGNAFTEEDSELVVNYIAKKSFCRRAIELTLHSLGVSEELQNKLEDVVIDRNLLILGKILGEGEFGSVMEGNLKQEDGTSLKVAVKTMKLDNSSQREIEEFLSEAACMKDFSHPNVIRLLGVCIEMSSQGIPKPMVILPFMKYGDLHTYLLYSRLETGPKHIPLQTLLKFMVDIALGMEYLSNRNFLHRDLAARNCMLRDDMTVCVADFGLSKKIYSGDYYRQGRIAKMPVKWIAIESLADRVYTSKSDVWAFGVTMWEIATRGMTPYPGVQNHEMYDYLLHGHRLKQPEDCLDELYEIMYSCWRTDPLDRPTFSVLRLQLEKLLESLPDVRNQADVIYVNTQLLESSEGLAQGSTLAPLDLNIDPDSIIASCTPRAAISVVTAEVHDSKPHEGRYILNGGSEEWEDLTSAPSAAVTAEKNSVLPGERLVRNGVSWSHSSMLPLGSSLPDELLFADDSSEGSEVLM
# Jak2, sequence (O60674 whole entry, looked up): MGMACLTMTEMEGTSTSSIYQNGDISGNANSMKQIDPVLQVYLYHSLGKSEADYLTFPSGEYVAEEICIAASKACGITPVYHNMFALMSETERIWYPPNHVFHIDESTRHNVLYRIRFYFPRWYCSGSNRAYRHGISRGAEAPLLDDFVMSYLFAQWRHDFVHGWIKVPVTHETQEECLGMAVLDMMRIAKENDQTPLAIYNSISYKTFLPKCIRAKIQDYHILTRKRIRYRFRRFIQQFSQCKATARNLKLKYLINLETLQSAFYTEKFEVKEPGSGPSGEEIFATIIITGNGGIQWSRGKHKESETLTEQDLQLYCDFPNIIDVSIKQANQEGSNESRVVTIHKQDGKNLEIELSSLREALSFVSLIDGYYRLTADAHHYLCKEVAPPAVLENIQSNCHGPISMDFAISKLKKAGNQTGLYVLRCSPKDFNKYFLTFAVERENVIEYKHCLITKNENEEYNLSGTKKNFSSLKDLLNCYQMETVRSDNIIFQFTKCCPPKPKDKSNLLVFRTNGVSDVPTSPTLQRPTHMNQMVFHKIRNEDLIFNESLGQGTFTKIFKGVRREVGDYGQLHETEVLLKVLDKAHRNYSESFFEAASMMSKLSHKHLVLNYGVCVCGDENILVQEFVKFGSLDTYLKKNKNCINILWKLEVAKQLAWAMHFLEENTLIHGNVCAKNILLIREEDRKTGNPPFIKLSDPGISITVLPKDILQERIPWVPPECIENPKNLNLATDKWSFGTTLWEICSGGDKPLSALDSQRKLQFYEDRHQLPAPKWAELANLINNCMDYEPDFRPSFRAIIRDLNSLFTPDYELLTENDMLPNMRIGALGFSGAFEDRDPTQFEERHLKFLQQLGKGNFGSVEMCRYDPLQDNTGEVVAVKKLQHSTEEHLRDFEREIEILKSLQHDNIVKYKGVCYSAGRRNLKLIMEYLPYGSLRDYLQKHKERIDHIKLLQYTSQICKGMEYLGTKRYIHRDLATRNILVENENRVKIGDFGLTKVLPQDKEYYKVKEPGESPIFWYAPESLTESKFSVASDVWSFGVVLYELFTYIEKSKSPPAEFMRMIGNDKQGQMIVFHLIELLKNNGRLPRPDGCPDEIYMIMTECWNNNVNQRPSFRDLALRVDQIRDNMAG
Sequence,SH2 binding enrichment (SHP2-C SH2),SH2 binding enrichment (Grb2 SH2),SH2 binding enrichment (c-Src SH2),phosphorylation enrichment (Hck),phosphorylation enrichment (Fer (mouse)),phosphorylation enrichment (c-Abl (mouse)),phosphorylation enrichment (FGFR3),phosphorylation enrichment (AncSZ),phosphorylation enrichment (Jak2),phosphorylation enrichment (FGFR1),phosphorylation enrichment (Fyn),phosphorylation enrichment (c-Src),phosphorylation enrichment (EPHB2),phosphorylation enrichment (Fes),phosphorylation enrichment (EPHB1),phosphorylation enrichment (MERTK)
SNKLTYGTMVF [ACOX1_Y275],1.05,0.925,0.504,2.9,0.631,0.836,0.573,0.773,0.863,0.459,5.28,4.65,0.604,1.02,0.505,0.495
SPPPAYTPMSG [ERBB4_Y1056],0.811,0.846,0.92,0.45,0.379,0.459,0.457,0.522,0.503,0.41,0.483,0.388,0.429,0.503,0.438,0.529
SREDIYKRNIE [PDE4DIP_Y45],0.753,0.767,0.403,0.603,0.431,0.654,0.585,0.659,0.7,0.5,0.591,0.405,0.553,0.81,0.422,0.366
SSMNDYNPLEK [MYOC_Y479_I477N],0.616,0.848,0.645,0.479,0.397,0.625,0.578,0.797,1.07,0.456,0.4,0.502,0.454,0.977,0.422,0.614
SSPQPYLVPFL [TAF4_Y652],1.66,0.86,0.829,0.481,0.466,1.09,0.746,0.857,2.85,0.522,0.497,0.49,0.867,0.78,0.415,0.514
SSQAHYRLSAF [ADAMTS9_Y100],0.721,0.816,0.43,0.434,0.347,0.481,0.584,0.65,0.482,0.399,0.449,0.41,0.426,0.584,0.452,0.368
SSSAIYDNPDL [DCP1B_Y191_N195D],0.621,0.667,1.94,5.17,6.58,9.33,0.651,1.29,0.914,0.519,3.81,2.7,10.9,1.07,7.52,5.29
SSVAGYACLAY [MVD_Y131_A128V],3,0.777,2.24,0.538,0.587,0.768,0.701,0.898,0.852,0.495,0.466,0.554,0.582,0.994,0.564,0.463
SSYSGYIMMPN [LEF1_Y114],1,0.905,1.99,0.51,0.604,0.486,2.38,0.858,5.39,3.79,0.571,0.684,1.09,0.718,0.923,2.47
STSKTYVISRT [RBBP6_Y87],0.758,0.74,0.476,0.465,0.396,0.423,0.498,0.628,0.527,0.503,0.416,0.444,0.426,0.497,0.387,0.417
SVCPDYDLCSI [SQSTM1_Y148_V153I],0.733,0.968,0.692,0.599,2.9,0.876,0.763,1.72,1.11,0.709,0.868,0.801,0.914,1.16,0.942,0.616
SVGVPYEPPEV [TP53_Y220_V217G],0.861,0.718,0.444,0.577,0.585,0.881,0.748,1.16,1.09,0.523,0.545,0.509,0.57,1.29,0.534,0.485
SVTCTCSPALN [TP53_Y126_Y126C],0.508,0.856,0.472,0.526,0.533,0.907,0.889,1.16,1.15,0.585,0.479,0.415,0.614,1.48,0.704,0.395
TEDELYQLSLQ [RASGRP2_Y378],0.563,0.661,0.412,0.896,2.94,0.928,0.759,1.9,1.04,0.476,0.93,1.33,0.677,1.27,0.717,0.542
TFEFKYPEGSS [TGM4_Y440_YF],0.463,0.804,0.506,0.617,0.512,0.734,0.827,1.02,0.765,0.518,0.55,0.499,0.583,1.18,0.437,0.497
TFMKQYPKVFL [CNBD1_Y70],0.811,0.836,0.559,0.473,0.436,0.521,0.56,0.82,0.591,0.55,0.525,0.486,0.541,1.09,0.54,0.364
TGQERYRAITS [RAB11B_Y73_A68T],0.695,0.836,0.485,0.519,0.346,0.368,0.392,0.516,0.369,0.423,0.451,0.344,0.291,0.588,0.322,0.337
TILEHYRRTHC [MYBPC3_Y1119_V1115I],0.939,0.874,0.663,0.524,0.439,0.609,0.619,0.809,0.781,0.511,0.378,0.505,0.575,1.08,0.465,0.59
TINPIYEHVGY [CHN1_Y143],0.582,0.762,0.574,13.6,22.4,5.77,1.06,1.15,0.578,1.01,14.7,8.55,26.2,8.63,25.6,12.2
TISPYYCQSLF [CRYAA_Y48_R49C],0.743,0.867,2.21,0.79,0.939,1.13,4.43,1.1,1.26,5.32,1.12,1.76,0.543,1.13,0.934,5.18

# Further lines, with some results ahead:
SH2 binding enrichment (SHP2-C SH2),SH2 binding enrichment (Grb2 SH2),SH2 binding enrichment (c-Src SH2),Sequence,phosphorylation enrichment (Hck),phosphorylation enrichment (Fer (mouse)),phosphorylation enrichment (c-Abl (mouse)),phosphorylation enrichment (FGFR3),phosphorylation enrichment (AncSZ),phosphorylation enrichment (Jak2),phosphorylation enrichment (FGFR1),phosphorylation enrichment (Fyn),phosphorylation enrichment (c-Src),phosphorylation enrichment (EPHB2),phosphorylation enrichment (Fes),phosphorylation enrichment (EPHB1),phosphorylation enrichment (MERTK)
0.446,0.777,0.542,SMEGLYSSTQD [CLIC5_Y111],4.12,3.64,1.03,0.905,1.57,1.36,0.698,3.51,3.13,2.27,1.71,1.94,2.43
0.544,0.899,0.529,SQDSAYHSGIQ [FLG_Y3940],0.678,0.404,0.506,0.512,0.557,0.492,0.4,0.421,0.386,0.366,0.614,0.532,0.489
0.837,0.878,0.476,STGRSYAGVAV [KLHL3_Y577],0.315,0.31,0.361,0.389,0.43,0.389,0.482,0.345,0.302,0.3,0.466,0.25,0.318
0.707,0.747,0.396,SVKVFYKKCWS [EPHA7_Y202_YF],0.457,0.532,0.965,0.841,1.14,1.21,0.507,0.424,0.59,0.647,1.49,0.621,0.409
0.914,0.82,0.707,SVVVSYEPPEV [TP53_Y220_P219S],0.632,0.515,0.749,0.594,1.23,0.808,0.475,0.587,0.432,0.579,0.918,0.519,0.434
1.88,1.6,1.67,SYCYRYRCAAW [SUMF1_Y344_R349W],0.386,0.404,0.594,0.508,0.707,0.508,0.532,0.395,0.471,0.453,0.785,0.445,0.497
0.776,0.899,1.94,TAGEPYHDIRF [BAP1_Y223],0.489,0.523,0.429,1.29,0.821,0.64,1.54,0.498,0.619,0.446,0.744,0.555,0.426
0.98,0.625,0.412,TCFDKYTGNTF [FN1_Y101_YF],0.567,0.647,0.93,0.92,1.35,1.16,0.508,0.563,0.544,0.772,1.18,0.813,0.501
0.94,1.2,0.536,TDHLQYFDSNK [ARAP1_Y359_R358Q],0.697,0.654,0.695,0.84,0.809,0.914,0.928,0.79,0.656,0.651,1.31,0.721,0.607
0.825,0.851,0.447,TDKLFYIFTSG [SLC27A4_Y243_YF],0.524,0.472,0.766,0.886,1.6,1.41,0.686,0.506,0.469,0.701,1.44,0.732,0.538
0.98,0.903,0.673,THQNSYQPGRK [CEFIP_Y210],0.375,0.303,0.422,0.34,0.561,0.415,0.479,0.36,0.299,0.366,0.436,0.233,0.34
0.75,0.857,0.654,TIQIMYGCDVG [HLA-A_Y123],0.581,0.597,1.18,0.817,1.37,1.64,0.476,0.438,0.633,0.664,1.43,0.647,0.439
1.01,0.89,0.709,TKAEKYVNKAK [PLCG1_Y991],0.343,0.403,0.92,0.523,0.503,0.557,0.387,0.295,0.443,0.293,0.671,0.264,0.365
